Data from patent US5827498A, “Tumor affinity peptide, and radioactive diagnostic agent and radioactive therapeutic agent containing the peptide” (Nihon Medi-Physics Co., Ltd., priority 1994, dated 1998).
Where two headings read alike, the source gives them in different places. Values belong to the substance of their own block, whether it stands above or below them. No end group written: not given here.

Tests used:
[1] = parameters: species or system SD rats (Sprague-Dawley Rats); settings: rat, in vivo
Description: To SD rats (Sprague-Dawley Rats) weighing 140 to 200 grams and previously Ravonal anesthetized, technetium-99m-peptide-1 obtained in Example 6, technetium-99m-peptide-2, 3 and 4 obtained in Example 7, technetium-99m-peptide-5, 6, 7, 8, 9, 10, 11, 12, 13 and KYCAREPPTRTNAYWGQG (hereinafter referred to as "peptide-14") prepared according to the method of Example 6 were each administered to the tail vein in an amount of 35 MBq to 45 MBq. The animals were sacrificed 5, 30, 60 and 180 minutes later to determine distribution ratio of radioactivity in various organs using a single channel counter.

[2] = Time course of technetium-99m labeling yield in vitro (HPLC); assay type: physicochemical
Description: To 40.3 μmol/300 μl of glucoheptanate was added 130 nmol/50 μl of stannous chloride and 1049 MBq of sodium pertechnetate, and the entire volume was adjusted to 1.3 ml. After stirring, the mixture was left to stand still for 30 minutes at room temperature and then the labeling purity of glucoheptanate was confirmed to be 95% or more by cellulose acetate membrane electrophoresis. 242 MBq/300 μl of the mixture was added to 0.46 μmol/300 μl of peptide-1 obtained in Example 1 and the reaction was completed in a hot water bath at 100° C. in 20 minutes to yield the target technetium-99m-peptide-1. After cooling at room temperature, the peptide was confirmed to have a labeling purity of 98.3% according to HPLC method.
After technetium-99m-peptide-1 obtained in Example 6 and technetium-99m-peptides-2 to 4 obtained by the same method as in Example 6 were left to stand still for 1, 3 and 6 hours, the time course changes of technetium-99m labeling yield of the peptides were studied using liquid chromatography (HPLC method) under the following conditions:
Column: Millipore puresil 5 μm C18 (4.6×150 mm),
Eluent A: 0.1% TFA/purified water,
Eluent B: 0.1% TFA/acetonitrile,
Concentration gradient: 0 min. (10% B)→5 mins. (10% B)→35 mins. (50% B)→45 mins. (75% B).

[3] = In vitro stability of technetium-99m labeled peptide in human plasma (HPLC); assay type: in vitro ADME
Description: Technetium-99m-peptide-8 obtained in Example 8 was mixed with 10-fold equivalent of human plasma (ROCKLAND Inc.: STERILE PLASMA containing EDTA) and the mixture was incubated at 37° C. A mixture of technetium-99m-peptide-1 obtained in Example 6 was also prepared by the same method.
The mixture was filtered through a 0.2 μm membrane filter 5 minutes and 30 minutes after the mixing, and was subjected to HPLC analysis. In vitro stability was evaluated by comparing the pattern of HPLC with that of peptide-1 before the mixing procedure. The HPLC profiles of technetium-99m-peptide-1 and of each of the above technetium-99m-labeled peptides mixed with plasma at 4° C. at the 5 and 30 minute points and at 37° C. at the 5 and 30 minute points are shown in FIGS. 7, 8, 9, 10, 11, 12, 13, 14 and 15.

[4] = target: T1, epitope VTSAPDTRPAPGST of mucin core protein conjugated to bovine serum albumin (BSA) (Homo sapiens, UniProt P15941); assay type: binding
T1 construct: made in house; host or cells: chemical peptide synthesis (no expression host)
Description: The epitope VTSAPDTRPAPGST of mucin core protein, to which the conventional peptide YCAREPPTRTNAYWG is known to bind, was synthesized and further conjugated to bovine serum albumin (BSA). The conjugated peptide was used as an artificial antigen to measure antigen affinity of peptide-14 by radioimmunoassay (RIA). The assay will be described below in detail.
Each 200 μl of 10 μg/ml solution of the artificial antigen in 50 mmol sodium carbonate buffer of a pH of 9.5 was added to each of 2 ml tubes containing polystyrene beads of 6.35 mm in diameter. The tubes were stood still overnight at 4° C. Then, the inside of the tubes was washed three times by a washing agent of 0.05%(v/v) Tween 20 PBS (phosphate buffer saline, pH 7.5). In order to block the portions to which the artificial antigen is not bound of the surface of the polystyrene beads, 200 μl of 1% BSA-PBS was each added to each of the tubes. The tubes were stood still for 3 hours at room temperature. Then, the inside of the tubes was washed three times.
Peptide-14 was diluted to 500, 100, 50, 10, 5, 1, 0.5, 0.1 and 0.05 μg/ml with PBS containing 1% PRIONEX™ (an albumin substitute of Pentapharm, Ltd.). […] Each of the diluted peptide-containing solutions was added to each of the […] tubes, followed by adding thereto 100 μl of the previously-prepared antibody solution. The tubes were stood still for 3 hours. Then, the inside of the tubes was washed three times with the washing agent.
A sheep antimouse antibody labelled with iodine-125 (3.7 MBq/ml, made by Amersham Co.) was diluted 100-fold with 1% BSA-PBS. To each of the tubes, 200 μl of the diluted antimouse antibody was added. Then, the tubes were stood still for 2 hours at 37° C. Then, the inside of the tubes was washed three times with the washing agent, and radioactivity was measured by use of an auto well gammma ray counter.

Substance: KYCAD-REPPTD-RTFAYD-WGQG [peptide-10]
radioactivity in liver and small intestines compared with peptides having corresponding L-Arg [1]: reduced percentages of radioactivity in liver and small intestines

Substance: KYCAD-REPPTD-RTFAYWGQG [peptide-9]
radioactivity in liver and small intestines compared with peptides having corresponding L-Arg [1]: reduced percentages of radioactivity in liver and small intestines

Substance: KYCAD-REPPTRTFAYWGQG [peptide-7]
radioactivity in liver and small intestines compared with peptides having corresponding L-Arg [1]: reduced percentages of radioactivity in liver and small intestines

Substance: KYCAREPPTRTFAYWGQG [peptide-1]
technetium-99m labeling yield ([2]; 1 hr. standing after labeling): ≥ 98%
technetium-99m labeling yield ([2]; 1 hr. standing after labeling, listed as Peptide-1): 98.3%
technetium-99m labeling yield ([2]; 3 hr. standing after labeling): 97.2%
technetium-99m labeling yield ([2]; 6 hr. standing after labeling): ≥ 96%
technetium-99m labeling yield ([2]; 6 hr. standing after labeling, listed as Peptide-1): 96.6%
% of unidentified radioactive substance in plasma ([3]; 5 mins. later/4° C.): 5.3%
% of unidentified radioactive substance in plasma ([3]; 5 mins. later/37° C.): 12.4%
% of unidentified radioactive substance in plasma ([3]; 30 mins. later/4° C.): 40.1%
% of unidentified radioactive substance in plasma ([3]; 30 mins. later/37° C.): 59.4%

binding percentage ([4]; 5.0e-8 g/ml): 29.517%
binding percentage ([4]; 1.0e-7 g/ml): 27.890%
binding percentage ([4]; 5.0e-7 g/ml): 42.941%
binding percentage ([4]; 1.0e-6 g/ml): 38.129%
binding percentage ([4]; 5.0e-6 g/ml): 50.293%
binding percentage ([4]; 1.0e-5 g/ml): 60.056%
binding percentage ([4]; 5.0e-5 g/ml): 60.869%
binding percentage ([4]; 1.0e-4 g/ml): 58.585%
binding percentage ([4]; 5.0e-4 g/ml): 63.669%
Substance: KYCAREPPTRTNAYWGQG [peptide-14, KYCAREPPTRTNAYWGQG]

Substance: YCAREPPTRTFAYWG [peptide-3, peptide without N-terminal Lys, used for comparison]
technetium-99m labeling yield ([2]; 1 hr. standing after labeling): 96.3%
technetium-99m labeling yield ([2]; 3 hr. standing after labeling): below 95%
technetium-99m labeling yield ([2]; 3 hr. standing after labeling, listed as Peptide-3): 88.9%
technetium-99m labeling yield ([2]; 6 hr. standing after labeling): 84.4%

Substance: YCAREPPTRTFAYWGQG [peptide-4]
technetium-99m labeling yield ([2]; 1 hr. standing after labeling): 81.5%
technetium-99m labeling yield ([2]; 3 hr. standing after labeling): below 95%
technetium-99m labeling yield ([2]; 3 hr. standing after labeling, listed as Peptide-4): 81.2%
technetium-99m labeling yield ([2]; 6 hr. standing after labeling): 79.9%

Substance: YCAREPPTRTNAYWG [peptide-2, conventional peptide without N-terminal Lys, used for comparison]
technetium-99m labeling yield ([2]; 1 hr. standing after labeling): 85.5%
technetium-99m labeling yield ([2]; 3 hr. standing after labeling): below 95%
technetium-99m labeling yield ([2]; 3 hr. standing after labeling, listed as Peptide-2): 71.8%
technetium-99m labeling yield ([2]; 6 hr. standing after labeling): 78.5%
